The source of these data is patent publication US20210253724A1.

The term EC50 denotes the midpoint of the concentration-response curve.

For test [1], the target named is human 4-1BB (CD137) on Jurkat-hu4-1BB-NFκB-luc2 reporter cells (human) (UniProt Q07011). Put plainly: cell-based or functional assay. Also noted: AUC of NFκB-luciferase activation curve, no FAP+ cells / AUC of NFκB-luciferase activation curve, with WM-266-4 cells: unit not given beside the values.
The target is the same in test [2]. Put plainly: cell-based or functional assay. Set-up: AUC of NFκB-luciferase activation curve, no CEA+ cells / AUC of NFκB-luciferase activation curve, with CHO-k1-cynoCEACAM5 clone 8: unit not given beside the values.
The target in test [3] is human CEACAM5 (CEA) on cells (human) (UniProt P06731). The test is described as follows: flow cytometry on MKN45 cells. Also noted: unit not given beside the values. (In flow cytometry, cells or beads pass a laser one at a time.)
The target of test [4] is cynomolgus monkey CEACAM5 on CHO-k1-cynoCEACAM5 clone 8 cells (cynomolgus monkey). Put plainly: flow cytometry on CHO-k1-cynoCEACAM5 clone 8. Set-up: unit not given beside the values.
Test [5] deals with human FAP on NIH/3T3-huFAP clone 19 cells (human) (UniProt Q12884). The test is described as follows: flow cytometry on NIH/3T3-huFAP clone 19 cells.
Test [6] addresses human CEACAM5 (CEA) on cells (human) (UniProt P06731). Put plainly: flow cytometry on CHO-k1-humanCEACAM5 clone 11.
Test [7] has the same target. Put plainly: flow cytometry on CHO-k1-humanCEACAM5 clone 12.
The target is the same in test [8]. The test is described as follows: flow cytometry on CHO-k1-humanCEACAM5 clone 13.

Sequence of human CEACAM5 (CEA) on cells (human) (P06731 35-685 E398K limits assumed): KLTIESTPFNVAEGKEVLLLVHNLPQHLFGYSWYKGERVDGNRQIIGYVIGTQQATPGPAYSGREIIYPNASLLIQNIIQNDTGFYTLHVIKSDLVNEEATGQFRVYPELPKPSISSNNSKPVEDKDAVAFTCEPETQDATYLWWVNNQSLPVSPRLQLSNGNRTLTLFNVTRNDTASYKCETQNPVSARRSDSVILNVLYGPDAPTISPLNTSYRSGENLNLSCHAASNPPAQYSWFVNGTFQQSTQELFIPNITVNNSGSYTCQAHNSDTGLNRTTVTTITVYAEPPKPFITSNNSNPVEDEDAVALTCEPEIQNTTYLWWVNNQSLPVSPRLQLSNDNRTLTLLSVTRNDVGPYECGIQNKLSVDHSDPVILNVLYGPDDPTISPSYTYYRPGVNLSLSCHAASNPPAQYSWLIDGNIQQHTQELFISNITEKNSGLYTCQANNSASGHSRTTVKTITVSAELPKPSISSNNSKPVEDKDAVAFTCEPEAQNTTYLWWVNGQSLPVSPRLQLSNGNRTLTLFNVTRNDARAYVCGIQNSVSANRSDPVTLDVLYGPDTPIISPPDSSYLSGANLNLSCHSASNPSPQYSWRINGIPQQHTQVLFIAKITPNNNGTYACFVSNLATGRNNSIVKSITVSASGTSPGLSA

In test [1], “Untargeted (DP47) huIgG1 P329GLALA (antibody)” displayed an AUC of NFκB-luciferase activation curve, no FAP+ cells of 286; an AUC of NFκB-luciferase activation curve, with NIH/3T3-huFAP clone 19 cells of 521; an AUC of NFκB-luciferase activation curve, with WM-266-4 cells of 384. In test [2], this substance displayed an AUC of NFκB-luciferase activation curve, no CEA+ cells of 47; an AUC of NFκB-luciferase activation curve, with CHO-k1-cynoCEACAM5 clone 8 of 77; an AUC of NFκB-luciferase activation curve, with CHO-k1-humanCEACAM5 clone 11 of 264; an AUC of NFκB-luciferase activation curve, with CHO-k1-humanCEACAM5 clone 12 of 313. The AUC in test [3] was 420. The substance also returned an AUC in test [4] of 219. In test [5], this substance showed an AUC of 362 and a half-maximal effective concentration (EC50) of 2.29 nM. The substance also came in with an AUC in test [6] of 746. In test [7], this substance came in with an AUC of 1190. The substance further had an AUC in test [8] of 1870.
